Data published in US10603364B2, “Lysosomal targeting and uses thereof” (Shire Human Genetic Therapies, Inc., priority 2014, dated 2020).

Assays:
Format in all cases: in vivo
Naglu KO mice [1] = assay: Naglu enzyme activity in tissues of Naglu KO mice after intrathecal administration; conditions: 520 mg/kg brain, 24 hrs post final dose
Protocol: (§1) To evaluate the in vivo activity of Naglu-SPP and its efficacy as a therapeutic for the treatment of lysosomal storage diseases, particularly San B, Naglu-SPP was administered to Naglu KO mice via intrathecal injection. Intrathecal administration of Naglu-IGFII served as a positive control. The experimental conditions used for this assay are described in Tables 10 and 11 below.
24 hours after intrathecal administration of each respective fusion protein, Naglu KO mice were sacrificed and Naglu enzyme activity in various tissues was assayed. Total Naglu activity was evaluated using a well-established enzyme activity assay. Briefly, tissue homogenate was incubated in the presence of the Naglu specific substrate methylumbelliferyl-N-acetyl-α-D-glucosainide, and accumulation of cleavage product was measured by examining fluorescence intensity at 360/460 nm (excitation/emission) using a fluorescent plate reader. […] This increase in enzyme activity was observed over the duration of the 3 week treatment period.

Naglu KO mice [2] = assay: Total glycosaminoglycan (GAG) in liver and brain, dimethylmethylene blue; conditions: intrathecal, 520 mg/kg brain; brain significant in 2× and 3× weekly groups
Protocol: as §1
The activity of Naglu-SPP and Naglu-IGFII in vivo was also evaluated by examining the intracellular accumulation of natural substrates of Naglu in treated mice. One such assay was designed to evaluate the total concentration of glycosaminoglycan (GAG) in liver (FIG. 11A) and brain (FIG. 11B) tissue of treated mice in accordance with de Jong et al. (Clin Chem 38(6):803-807, 1992). Briefly, liver tissue was homogenized and total GAG quantified using dimethylmethylene blue. Brain tissue was homogenized and then incubated with pronase and benzonase to break down protein and nucleic acid. Total GAG was then extracted by passing the brain homogenate through a DEAE column. The eluate was further buffer exchanged through a desalting column, and the total GAG content was quantified using dimethylmethylene blue. […] The reduction of total GAG amount in brain tissue was significant in the 2× weekly as well as the 3× weekly treatment groups.

Naglu KO mice [3] = assay: Immunohistochemical staining of Lamp-1, GFAP and Iba-1 in brain and liver; conditions: intrathecal
Protocol: as §1
The lysosomal targeting of Naglu-SPP and Naglu-IGFII was further examined by immunohistochemical analysis. Tissue samples were collected, fixed in 10% NBF and processed for paraffin embedding. For each tissue assayed, 5 μm paraffin sections was subjected to immunostaining using antibodies against lamp lysosomal associated membrane protein 1 (Lamp-1), glial fibrillary acidic protein (GFAP) and the ionized calcium-binding adapter molecule 1 (Iba-1).

B1: Naglu-SPP: Fusion protein of human Naglu and SORT1 propeptide (SPP) via GAG3 linker; SEQ ID NO:17 (full-length), SEQ ID NO:22 (protein)
chain: MEAVAVAAAVGVLLLAGAGGAAGDEAREAAAVRALVARLLGPGPAADFSVSVERALAAKPGLDTYSLGGGGAARVRVRGSTGVAAAAGLHRYLRDFCGCHVAWSGSQLRLPRPLPAVPGELTEATPNRYRYYQNVCTQSYSFVWWDWARWEREIDWMALNGINLALAWSGQEAIWQRVYLALGLTQAEINEFFTGPAFLAWGRMGNLHTWDGPLPPSWHIKQLYLQHRVLDQMRSFGMTPVLPAFAGHVPEAVTRVFPQVNVTKMGSWGHFNCSYSCSFLLAPEDPIFPIIGSLFLRELIKEFGTDHIYGADTFNEMQPPSSEPSYLAAATTAVYEAMTAVDTEAVWLLQGWLFQHQPQFWGPAQIRAVLGAVPRGRLLVLDLFAESQPVYTRTASFQGQPFIWCMLHNFGGNHGLFGALEAVNGGPEAARLFPNSTMVGTGMAPEGISQNEVVYSLMAELGWRKDPVPDLAAWVTSFAARRYGVSHPDAGAAWRLLLRSVYNCSGEACRGHNRSPLVRRPSLQMNTSIWYNRSDVFEAWRLLLTSAPSLATSPAFRYDLLDLTRQAVQELVSLYYEEARSAYLSKELASLLRAGGVLAYELLPALDEVLASDSRFLLGSWLEQARAAAVSEAEADFYEQNSRYQLTLWGPEGNILDYANKQLAGLVANYYTPRWRLFLEALVDSVAQGIPFQQHQFDKNVFQLEQAFVLSKQRYPSQPRGDTVDLAKKIFLKYYPRWVAGSWGAPGGGGGAAAAAGGGGGGAPGGGGGAAAAAGGGGGGAPGGGGGAAAAAGGGGGGAPQDRLDAPPPPAAPLPRWSGPIGVSWGLRAAAAGGAFPRGGRWRR
- Naglu activity in liver and brain tissue vs vehicle control (Naglu KO mice [1]): dramatic increase
- total GAG concentration in liver and brain tissue vs vehicle control (Naglu KO mice [2]): significant reduction
- Lamp-1 immunostaining in brain (cerebral cortex, cerebellum, thalamus, striatum, white matter) (Naglu KO mice [3]; 2× weekly and 3× weekly): decrease
- Lamp-1 immunoreactivity in liver (Naglu KO mice [3]; three weekly deliveries): reduced significantly
- GFAP staining in cerebral cortex and cerebellum (astrocytes) (Naglu KO mice [3]; three weekly injections): reduced signal
- Iba-1 staining in cerebral cortex and cerebellum (microglial cells) (Naglu KO mice [3]; three weekly injections): microglial cells are reduced in size and have a smaller number of processes
